The source of these data is FireProtDB (doi:10.1021/bi00067a022).

First the molecules themselves.
B1: Ribonuclease, P00648 (parent)
chain: MMKMEGIALKKRLSWISVCLLVLVSAAGMLFSTAAKTETSSHKAHTEAQVINTFDGVADYLQTYHKLPDNYITKSEAQALGWVASKGNLADVAPGKSIGGDIFSNREGKLPGKSGRTWREADINYTSGFRNSDRILYSSDWLIYKTTDHYQTFTKIR

Variants of B1 are the subject of this series. As to conditions: Bacillus amyloliquefaciens, pH 6.3, 25 °C, Fluorescence, MES 450 mM, reversible: yes, structure 1BNI, whole UniProt chain shown.

For S132C H149C, where the note is “GdnHCl”, the “ddG of mutation (higher = less stable)” value is -4.1 kcal/mol, the denaturant m value amounted to 4.3 kcal/mol/M, the “denaturant midpoint (higher = more stable)” value is 3 M and the unfolding free energy is 12.9 kcal/mol.
On to A90C S127C, for which, where the note is “Urea”, the “ddG of mutation (higher = less stable)” value is -1.21 kcal/mol, the denaturant m value amounted to 1.73 kcal/mol/M, the “denaturant midpoint (higher = more stable)” value came out at 5.77 M and the unfolding free energy came to 10 kcal/mol.
